Assay results taken from the supplement of paper PMC9233669.
This sample holds only a part of the variants without activity.

Experiments:
[1] = tested on: biotinyl-Phe-oxazolone; assay: self-aminoacylation, catalytic enhancement (BFO) (fold over background); higher = more active; k-Seq, kA / k0A0; sequences stand for … in GGGAAUGGAUCCACAUCUACGAAUUC…UUCACUGCAGACUUGACGAAGCUG
Outline: (§1)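 Catalytic enhancement equals the median kA over the uncatalyzed rate, the latter read from the low-activity peak of a bimodal Gaussian fit. Values of kA came from fitting each sequence's fraction reacted to a pseudo-first-order model, with 1000 bootstraps. Reacted RNA was captured with streptavidin and quantified by triplicate qPCR and Illumina sequencing after 90 minutes at room temperature with 2–1250 μM biotinyl-aminoacyl-oxazolone and 0.43 μM mutagenized RNA pools bearing a 21-nt variable region.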

[2] = tested on: biotinyl-Ile-oxazolone; assay: self-aminoacylation, catalytic enhancement (BIO) (fold over background); higher = more active; k-Seq, kA / k0A0; sequences stand for … in GGGAAUGGAUCCACAUCUACGAAUUC…UUCACUGCAGACUUGACGAAGCUG
Outline: as §1

[3] = tested on: biotinyl-Met-oxazolone; assay: self-aminoacylation, catalytic enhancement (BMO) (fold over background); higher = more active; k-Seq, kA / k0A0; sequences stand for … in GGGAAUGGAUCCACAUCUACGAAUUC…UUCACUGCAGACUUGACGAAGCUG
Outline: as §1

[4] = tested on: biotinyl-Val-oxazolone; assay: self-aminoacylation, catalytic enhancement (BVO) (fold over background); higher = more active; k-Seq, kA / k0A0; sequences stand for … in GGGAAUGGAUCCACAUCUACGAAUUC…UUCACUGCAGACUUGACGAAGCUG
Outline: as §1

[5] = tested on: biotinyl-Leu-oxazolone; assay: self-aminoacylation, catalytic enhancement (BLO) (fold over background); higher = more active; k-Seq, kA / k0A0; sequences stand for … in GGGAAUGGAUCCACAUCUACGAAUUC…UUCACUGCAGACUUGACGAAGCUG
Outline: as §1

[6] = tested on: biotinyl-Trp-oxazolone; assay: self-aminoacylation, catalytic enhancement (BWO) (fold over background); higher = more active; k-Seq, kA / k0A0; sequences stand for … in GGGAAUGGAUCCACAUCUACGAAUUC…UUCACUGCAGACUUGACGAAGCUG
Outline: as §1

Sequence	self-aminoacylation [1]	self-aminoacylation [2]	self-aminoacylation [3]	self-aminoacylation [4]	self-aminoacylation [5]	self-aminoacylation [6]
AUGUUUGCUAAUCGUCGCAAG [Fam3.1 aminoacylation ribozyme variant]	1.59	1.32	1.13	1.44	1.32	1.01
AUGUUUGCUAAUUGUCGCAAG [Fam3.1 aminoacylation ribozyme variant]	1.81	1.38	1.41	1.17	1.64	2.13
AUGUUUGCUAGUAGUCGCAAG [Fam3.1 aminoacylation ribozyme variant]	1.15	0.957	1.15	0.827	0.911	0.975
AUUAAACUAGGUCAUCGGGUG [Fam2.2 aminoacylation ribozyme variant]	23	2.89	3.79	3.11	5.02	4.43
AUUAACCCGGUCAUCGAGUGA [Fam2.1 aminoacylation ribozyme variant]	54.5	3.71	7.21	4.15	7.87	9.1
AUUAACCGGGUCAUCGAGUGA [Fam2.1 aminoacylation ribozyme variant]	36	3.38	6.03	3.29	7.07	7.04
AUUAACCUAGGUCAUCGAGUG [Fam2.2 aminoacylation ribozyme variant]	17.9	7.02	8.83	5.78	11.7	4.39
AUUAACCUAGGUCGUCGGGUG [Fam2.2 aminoacylation ribozyme variant]	3.08	1.38	1.7	1.42	2.01	1.42
AUUAACCUAGGUGAUCGGGUG [Fam2.2 aminoacylation ribozyme variant]	8.95	2.31	3.25	2.1	3.63	2.9
AUUAACCUGGACAUCGAGUGA [Fam2.1 aminoacylation ribozyme variant]	32.9	2.99	6.63	2.89	6.88	8.58
AUUAACCUGGGCAUCGAGUGA [Fam2.1 aminoacylation ribozyme variant]	20.5	2.63	4.66	2.6	5.72	5.8
AUUAACCUGGUAAUCGAGUGA [Fam2.1 aminoacylation ribozyme variant]	52.9	3.86	8.82	4.05	9.73	11.3
AUUAACCUGGUCAUAGAGUGA [Fam2.1 aminoacylation ribozyme variant]	17.4	2.31	4.3	2.55	4.78	6.17
AUUAACCUGGUCAUCGAGCGA [Fam2.1 aminoacylation ribozyme variant]	1.01	1.79	1.88	1.5	1.68	1.37
AUUAACCUGGUCAUCGGGUGA [Fam2.1 aminoacylation ribozyme variant]	53.1	4.26	8.87	4.72	9.83	11
AUUAACCUGGUGAUCGAGUGA [Fam2.1 aminoacylation ribozyme variant]	25.7	3.62	6.03	3.16	6.66	8.53
AUUAAUCUGGUCAUCGAGUGA [Fam2.1 aminoacylation ribozyme variant]	15.6	3.24	4.7	2.88	5.01	6.95
AUUACACAGGUCAUCGAGUGA [Fam2.1 aminoacylation ribozyme variant]	8.1	2.5	3.66	2.44	3.37	5.05
AUUACACGGGUCAUCGAGUGA [Fam2.1 aminoacylation ribozyme variant]	21.7	2.64	4.62	3.1	4.33	5.36
AUUACACUGGCCAUCGAGUGA [Fam2.1 aminoacylation ribozyme variant]	15.9	3.13	6.45	3.07	6.8	5.64
AUUACACUGGUAAUCGAGUGA [Fam2.1 aminoacylation ribozyme variant]	30.4	4.09	7.53	3.38	8.16	8.34
AUUACACUGGUCAUCGAGUUA [Fam2.1 aminoacylation ribozyme variant]	0.876	1.18	1.05	1.02	1.09	1.38
AUUACACUGGUCAUCGGGUGA [Fam2.1 aminoacylation ribozyme variant]	59.4	5.02	9.88	5.51	9.65	9.23
